The text below walks through data of the nanobody polyreactivity screen of Harvey et al. (2022).

The nature of the data set: yeast display, Sf9 membrane polyspecificity reagent, FACS + sequencing; frameworks hold sequencing errors. A digest of the protocol: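 Synthetic nanobody libraries on Saccharomyces cerevisiae BJ5465 were galactose-induced for 36–48 hours, stained 1 hour at 4 °C with 10% biotinylated, detergent-solubilized Sf9 membrane reagent and enriched on streptavidin microbeads. FACS then separated cells into low and high (top ~1%) gates by anti-HA (expression) and streptavidin (reagent binding) fluorescence. Genes were colony-PCR amplified, MiSeq 2 × 250 sequenced and CDR-length filtered. A clone's polyreactivity label is that of its gate of origin.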
Turning to “QVQLVESGGGLVQAGGSLRLSCAASGRTSARYGMGWYRQAPGKERELVASIRRSGDSTYYADSVKGRFTISRDNAKNTVYLQLNSLKPEDTAVYYCAAGGKQGKRDYWGQGTQVTVSS”, the “polyreactivity (PSR sort gate)” value is “low polyreactivity”.

“QVQLVESGGGLVQAGGSLRLSCAASGRTSFWNAMGWYRQAPGKERELVAAISASVGRTYYADSVKGRFTISRDNAKNTVYLQMNSLKPEDTAVYYCAKVYHAGTGYPSLGLDYWGQGTQVTVSS”: the “polyreactivity (PSR sort gate)” value was “low polyreactivity”.

For the sequence “QVQLVESGGGLVQAGGSLRLSCAASGRTSGFNTMGWYRQAPGKESELVAAISFSGGSTYYADSVKGRFTISRDNAKNTVYLHMNSLKPEDTAVYYCNALYRYLYRSGDYWGQGTQVTVSS”, the “polyreactivity (PSR sort gate)” value is “low polyreactivity”.

On to “QVQLVESGGGLVQAGGSLRLSCAASGRTSGRYALGWYRQAPGKERELVAAITSSGGSTYYADSVKGRFTISRDTAKNTVYLQMNSLKPEDTAVYYCAAYFRGTGLDRSYKYDYWGQGTQVTVSS”, for which the “polyreactivity (PSR sort gate)” value is “high polyreactivity”.

Regarding “QVQLVESGGGLVQAGGSLRLSCAASGRTSGVYAMGWYRQAPGKERELVAAITSDSTYYADSVKGRFTISRDNAKNTVYLQMNSLKPEDTAVYYCAADSLARRYDYWGQGTQVTVSS”, the “polyreactivity (PSR sort gate)” value is reported as “low polyreactivity”.

Consider “QVQLVESGGGLVQAGGSLRLSCAASGRTSIWNSMGWYRQAPGKERELVASISWSGGSTYYADSVKGRFTISRDNAKNTVYLQMNSLKPEDTAVSYCAKTAYFLVFNEHLHNKRYDSWGQGTQVTVSS”, for which the “polyreactivity (PSR sort gate)” value is listed as “low polyreactivity”.

On to “QVQLVESGGGLVQAGGSLRLSCAASGRTSNIYAMGWYRQAPGKERELVAAIRTGGSTNYADSVKGRFTISRDNAKNSVYLQMNSLKPEDTAVYYCAATSRRSRPAEEYWGQGTQVTVSS”, for which the “polyreactivity (PSR sort gate)” value is recorded as “high polyreactivity”.

On to “QVQLVESGGGLVQAGGSLRLSCAASGRTSRNNVMGWYRQAPGKERELVAAITKRTDRTYYADSVKGRFTISRDNAKNTVYLQMNSLKPEDTAVYYCAADLSLSTGGRAFPTYGYWGQGTQVTVSS”, for which the “polyreactivity (PSR sort gate)” value is “high polyreactivity”.

For “QVQLVESGGGLVQAGGSLRLSCAASGRTSRQYAMGWYRQAPGKEREFVAAITWSDSGTYYADSVKGRFTISRDNAKNTVYLQMNSLKPEDTAVYYCAAERYLSFDRYLYEYYYWGQGTQVTVSS”, the “polyreactivity (PSR sort gate)” value is “low polyreactivity”.

On to “QVQLVESGGGLVQAGGSLRLSCAASGRTSRVYAMGWYRQAPGTERELVAAITWRGGNTYYADSVKGRFTISRDHAKNTVYLQMNSMKPEDTAVYYCAADPWSYGSWHGDSWGQGTQVTVSS”, for which the “polyreactivity (PSR sort gate)” value is “high polyreactivity”.

With “QVQLVESGGGLVQAGGSLRLSCAASGRTSRYAMGWYRQAPGKERELVAAISRNGGTTSYADSVKGRFTISRDNAKNTVYLQMNSLKPEDTAVYYCNAYSAFVPPTRGYYWGQGTQVTVSS”, the “polyreactivity (PSR sort gate)” value is reported as “high polyreactivity”.

Turning to “QVQLVESGGGLVQAGGSLRLSCAASGRTSSIYTMGWYRQAPGKERELVAAINSGGRTYYADSVKGRFTISRDNAKNTVYLQMNSLKPEDTAVYYCAARRSTYYWGGVTYTYYWGQGTQVTVSS”, the “polyreactivity (PSR sort gate)” value is given as “high polyreactivity”.

For “QVQLVESGGGLVQAGGSLRLSCAASGRTSSSYAMGWSRQAPGKERELVASITSSGRTYYADSVKGRFTISRDNAKNTVYLQMNSLKPEDTAVYYCAAPFYRVRGWYARTPYGYWGQGTQVTVSS”, the “polyreactivity (PSR sort gate)” value is “high polyreactivity”.

For the sequence “QVQLVESGGGLVQAGGSLRLSCAASGRTSTRNAMGWYRQAPGKERELVAAITRSGGGTYYADSVKGRFTISRDNAKNTVYLQMNSLKPEDTAVYYCAADQRSPSDGYEYWGQGTQVTVSS”, the “polyreactivity (PSR sort gate)” value was “low polyreactivity”.

For “QVQLVESGGGLVQAGGSLRLSCAASGRTSVINAMGWYRQAPGKERELVATISRGGSTNYADSVKGRFTISRDNAKNTVYLQMNSLIPDDTAVYYCNADEQNESFIWSFTIIYDYWGQGTQVTVSS”, the “polyreactivity (PSR sort gate)” value is listed as “low polyreactivity”.

As for “QVQLVESGGGLVQAGGSLRLSCAASGRTSVIYAMGWYRKAPGKERELVASIRRGGSTSYADSVKGRFTISRDNAKNTVYLQMNSLKPEDTAVYYCAARKRSVYGTEYDYWGQGTQVTVSS”, the “polyreactivity (PSR sort gate)” value is “high polyreactivity”.

For “QVQLVESGGGLVQAGGSLRLSCAASGRTSVIYAMGWYRQAPGKERELVASIRRGGSTSYADSVKGRFTISRDNAKNTVYLQMNSLKPEDTAVYYCAARKRSVYGTEYDYWGQGTQVTVSS”, the “polyreactivity (PSR sort gate)” value is given as “high polyreactivity”.

“QVQLVESGGGLVQAGGSLRLSCAASGRTSVWYTMGWYRQAPGKEREFVASITGSGTCYADSVKGRFTISRDNAKNTVYLQMNSLKPEDTAVYYCAAGGKYYTFGFRGGTYDYWGQGTQVTVSS”: the “polyreactivity (PSR sort gate)” value is on record as “high polyreactivity”.

Take “QVQLVESGGGLVQAGGSLRLSCAASGRTSVYNAMGWYRPAPGKERELVAAIRGGGGNTYYADSVKGRFTISRDNAKNTVYLQMNSLKPADTAVYYCAKGSVVYLLRGVKGHSMDYWGQGTQVTVSS”: the “polyreactivity (PSR sort gate)” value is listed as “low polyreactivity”.

As to “QVQLVESGGGLVQAGGSLRLSCAASGRTSVYNAMGWYRQAPGKERELVAAITYGGRTYYADSVKGRFTISRDNAKNTVYLQMNSLKPEDTAVYYCAAPFHPAYVGYDYWGQGTQVTVSS”, the “polyreactivity (PSR sort gate)” value is recorded as “low polyreactivity”.

On to “QVQLVESGGGLVQAGGSLRLSCAASGRTSYGYAIGWYRQAPGKERELVAAITYGGGSTYYADSVKGRFTISRDNEKNTVYLQMNSLKPEDTAVYYCAADRTGSTLYTIRYYYWGQGTQVTVSS”, for which the “polyreactivity (PSR sort gate)” value is listed as “low polyreactivity”.

For the sequence “QVQLVESGGGLVQAGGSLRLSCAASGRTSYSNAMGWYRQAPGKERELVAAISGSGVRTYYADSVKGRFTISRDNAKNTVYLQMNSLKPEDTAVYYCAAAGRYPALYGYWGQGTQVTVSS”, the “polyreactivity (PSR sort gate)” value is “high polyreactivity”.

For the sequence “QVQLVESGGGLVQAGGSLRLSCAASGRTSYTNAMGWYRQAPGKERELVAAINYSGGSTYYADSVKGRFTISRDNAKNTVYLQMNSLKPEDTAVSYCAAERYYWYTEMGYWGQGTQVTVSS”, the “polyreactivity (PSR sort gate)” value is “high polyreactivity”.

Take “QVQLVESGGGLVQAGGSLRLSCAASGRTSYTNAMGWYRQAPGKERELVAAINYSGGSTYYADSVKGRFTISRDNAKNTVYLQMNSLKPEDTAVYYCAADWDWWYQEFDYWGQGTQVTVSS”: the “polyreactivity (PSR sort gate)” value is given as “high polyreactivity”.

For the sequence “QVQLVESGGGLVQAGGSLRLSCAASGRTYGFNVMGWYRQAPGKERELVAAISWSGGSTYYADSVKGRFTISRDNEKNTVYLQMNSLKPEDTAVYYCNKRYVHRYGYWGQGTQVTVSS”, the “polyreactivity (PSR sort gate)” value is listed as “low polyreactivity”.

For the sequence “QVQLVESGGGLVQAGGSLRLSCAASGRTYGHDTMGWYRQAPGKERELVARISRTGSTKYADSVKGRFTISRDNAKNTVYLQMNCLTPEDTAVYYCARVQAGGYGERVYAYHFDYWGQGTQVTVSS”, the “polyreactivity (PSR sort gate)” value was “high polyreactivity”.

As to “QVQLVESGGGLVQAGGSLRLSCAASGRTYGYAMGWYRQAPGKERELVARITWRGGSTSYADSVKGRFTISRDNAKNTVYLQMNSLKPEDTAVYYCAAGFYFPVYTYVRKRYYYWGQGTQVTVSS”, the “polyreactivity (PSR sort gate)” value is given as “high polyreactivity”.

As to “QVQLVESGGGLVQAGGSLRLSCAASGRTYGYAMGWYRQAPGKERELVARITWRGGSTSYADSVKGRFTISRENAKNTVYLQMNSLKPEDTAVYYCAAGFNSSDWHYYYRGQGTQVTVSS”, the “polyreactivity (PSR sort gate)” value is on record as “high polyreactivity”.

For “QVQLVESGGGLVQAGGSLRLSCAASGRTYIYNAMGWYRQAPGKERELVAAISFRGGSTYYADSVKGRFTISRDNAKNTVYLQMNSLKPEDTAVYYCNAVRFYRYGWGQGTQVTVSS”, the “polyreactivity (PSR sort gate)” value is on record as “high polyreactivity”.

On to “QVQLVESGGGLVQAGGSLRLSCAASGRTYLYYVMGWYIQAPGKEREVVAAISYSGGSTYYADSVKGRFTISRDNAKNTVYLQMNSLKPEDTAVYYCTAVPVVRAGHGYDSWGQGTQVTVSS”, for which the “polyreactivity (PSR sort gate)” value is “high polyreactivity”.

Consider “QVQLVESGGGLVQAGGSLRLSCAASGRTYNTNAMGWYRQAPGKERELVAAISGGGSTYADSVKGRFTISRDNAKNTVYLQMNSLKPEDTAVYYCAAQNVWFYGFWRDYWGQGTQVTVSS”, for which the “polyreactivity (PSR sort gate)” value was “low polyreactivity”.

With “QVQLVESGGGLVQAGGSLRLSCAASGRTYPAYAMGWYRQAPGKERELVAAITYDGGTTYYADSVKVRFTISRDNAKNTVYLQMNSLKPEDTAVYYSAAVYDEDQYDYWGQGTQVTVSS”, the “polyreactivity (PSR sort gate)” value is “low polyreactivity”.

As for “QVQLVESGGGLVQAGGSLRLSCAASGRTYPGNAMGWYRPAPGKERELVAAISWSGTRTYYADSVKGRFTISRDNAKNTVYLQMNSLKPEDTAVHFCNVVVKGAWDYYPYDYWGQGTQVTVSS”, the “polyreactivity (PSR sort gate)” value was “high polyreactivity”.

Consider “QVQLVESGGGLVQAGGSLRLSCAASGRTYRRNAMGWYRQAPGKERELVAAIRSDGSTYYADSVKGRFTISRDNAKNTVYLQMNRLKPEDTAVYYCNAVYVSSFTCHDYWGQGTQVTVSS”, for which the “polyreactivity (PSR sort gate)” value is “low polyreactivity”.

On to “QVQLVESGGGLVQAGGSLRLSCAASGRTYRRYAMGWYRQAPGKERELVASISRTGGSTYYADAVKRRYTISRDNAKNTVYLQMNSLKPVDTAVYYCNAGPSVGWYNYWGQGTQVSVSS”, for which the “polyreactivity (PSR sort gate)” value is “high polyreactivity”.

Turning to “QVQLVESGGGLVQAGGSLRLSCAASGRTYSYYAMGWYRQAPGKERQLVAAITTRTGSTYYADSVKGRFTISRDNAKNTVYLQMNSLKPEDTAVYYCAAEPRYLRSGKGFDYWGQGTQVTVSS”, the “polyreactivity (PSR sort gate)” value is recorded as “high polyreactivity”.

“QVQLVESGGGLVQAGGSLRLSCAASGRTYTGYGMGWSRQAPGKERELVAAITWRGDRTYYADSVKGRFTISRDNAKNTVYLQMNSLKPEDTAVYYCNKLGRIQYDYWGQGTQVTVSS”: the “polyreactivity (PSR sort gate)” value is recorded as “high polyreactivity”.

For the sequence “QVQLVESGGGLVQAGGSLRLSCAASGRTYTYAMGWYRQAPGKERELVAGISRRGGNTYYADSVKGRFTISRDNAKNTVYLQMNSLKPEDTAVYYCAAVSFSASSYTYEYWGQGTQVTVSS”, the “polyreactivity (PSR sort gate)” value is on record as “high polyreactivity”.

Consider “QVQLVESGGGLVQAGGSLRLSCAASGRTYVFYVMGWYRQAPGKERELVASISRSGGSTYYADSVKGRFTISRDNAKNTVYLQMNSLKPEDTAVYYCAADQLYYGERDYIWGYYYWGQGTQVTVSS”, for which the “polyreactivity (PSR sort gate)” value is on record as “low polyreactivity”.

Take “QVQLVESGGGLVQAGGSLRLSCAASGRTYVPNAMGWYRQAPGKEREFVAAITSRGGRTFYADSVKGRFTISRDNAKNTVYLQMNSLKPDDTAVYYCAAYRPGFVYGRLDYWGQGTQVTVSS”: the “polyreactivity (PSR sort gate)” value is recorded as “high polyreactivity”.
